Reference: patent US20260022175A1 (Chugai, published 2026)
Blank lines part the entries; values can stand above or below the binder they belong to.

What was measured:
[1] = biological target: T1, hCTLA4-His-BAP (human CTLA4 extracellular region with C-terminal His-tag and BAP-tag) (human, biotin on the BAP-tag); test: SPR 37C, no ATP, steady state model
T1 construct: also called hCTLA4-His-Biotin

[2] = biological target: T1, hCTLA4-His-BAP (human CTLA4 …); test: SPR 37C, ATP 10 µM
[3] = biological target: T1, hCTLA4-His-BAP (human CTLA4 …); test: SPR 37C, ATP 100 µM
human CTLA4 [4] = biological target: T2, human CTLA4 (human); test: SPR Biacore T200, 37C, antibody captured, ATP 100 uM; ATP 100 µM
T2 construct: also called hCTLA4; hCTLA4-His-BAP
T2 sequence (chain, as listed by the source limits assumed): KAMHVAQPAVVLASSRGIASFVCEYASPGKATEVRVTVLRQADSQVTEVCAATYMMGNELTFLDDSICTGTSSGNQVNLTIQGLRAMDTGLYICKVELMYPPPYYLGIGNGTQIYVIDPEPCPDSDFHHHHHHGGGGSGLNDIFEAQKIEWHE

human CTLA4 [5] = biological target: T2, human CTLA4; test: SPR Biacore T200, 37C, antibody captured, ATP 10 uM; ATP 10 µM; binding amount
human CTLA4 [6] = biological target: T2, human CTLA4; test: SPR Biacore T200, 37C, antibody captured, ATP 10 uM; ATP 10 µM
human CTLA4 [7] = biological target: T2, human CTLA4; test: SPR Biacore T200, 37C, antibody captured, no ATP; no ATP; binding amount
human CTLA4 [8] = biological target: T2, human CTLA4; test: SPR Biacore T200, 37C, antibody captured, ATP 100 uM; ATP 100 µM; binding amount
human CTLA4 [9] = biological target: T2, human CTLA4; test: SPR Biacore T200, 37C, antibody captured, ATP 1 uM; ATP 1 µM; binding amount
[10] = biological target: T3, human FcγRIIb extracellular domain (human, UniProt P31994 43-217); test: SPR Biacore 8K+, antibody captured, FcγR as analyte, steady state affinity model
T3 construct: extracellular domain; also called hFcγR IIb
T3 sequence (looked up): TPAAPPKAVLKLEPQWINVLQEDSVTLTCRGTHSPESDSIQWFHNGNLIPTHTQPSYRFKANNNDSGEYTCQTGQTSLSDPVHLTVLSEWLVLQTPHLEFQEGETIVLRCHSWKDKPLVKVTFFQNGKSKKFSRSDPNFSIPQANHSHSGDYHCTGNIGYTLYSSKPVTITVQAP

[11] = biological target: T4, human FcγRIIa R extracellular domain (human, UniProt P12318 34-217); test: SPR Biacore 8K+; KD for FcγRIIb divided by KD for this FcγR;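 note: antibodies captured on an anti-human Fab kappa SA chip with soluble human FcγR ectodomains flowed over, FcγRIIb KD from steady-state fit, other FcγR KD from Langmuir model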
T4 construct: extracellular domain; also called hFcγR IIa R
T4 sequence (looked up): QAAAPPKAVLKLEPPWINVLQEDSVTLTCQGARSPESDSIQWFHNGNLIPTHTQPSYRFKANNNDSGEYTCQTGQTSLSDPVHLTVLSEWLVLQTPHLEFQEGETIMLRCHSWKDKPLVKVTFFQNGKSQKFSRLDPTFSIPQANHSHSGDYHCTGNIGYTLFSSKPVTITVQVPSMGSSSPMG

[12] = biological target: T5, human FcγRIIIa F extracellular domain (human, UniProt P08637 17-208); test: as above
T5 construct: extracellular domain; also called hFcγR IIIa F
T5 sequence (P08637 17-208): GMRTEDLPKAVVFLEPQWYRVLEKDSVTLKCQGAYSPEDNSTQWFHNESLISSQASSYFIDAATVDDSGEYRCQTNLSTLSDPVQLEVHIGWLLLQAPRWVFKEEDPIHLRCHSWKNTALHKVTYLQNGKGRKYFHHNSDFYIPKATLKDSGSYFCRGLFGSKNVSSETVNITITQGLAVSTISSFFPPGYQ

[13] = biological target: T6, human FcγRIIIa V extracellular domain (human, UniProt P08637 17-208); test: as above
T6 construct: extracellular domain; also called hFcγR IIIa V
T6 sequence (P08637 17-208 F176V limits assumed): as the sequence (P08637 17-208) above, with F160V counted along it

[14] = biological target: T7, human FcγRIIa H extracellular domain (human, UniProt P12318 34-217); test: as above
T7 construct: extracellular domain; also called hFcγR IIa H
T7 sequence (looked up): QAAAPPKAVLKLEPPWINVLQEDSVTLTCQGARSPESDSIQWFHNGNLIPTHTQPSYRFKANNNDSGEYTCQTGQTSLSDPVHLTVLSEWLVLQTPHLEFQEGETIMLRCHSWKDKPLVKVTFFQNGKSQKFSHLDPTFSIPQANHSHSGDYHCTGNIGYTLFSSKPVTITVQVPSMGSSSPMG

[15] = biological target: T4, human FcγRIIa R extracellular domain; test: SPR Biacore 8K+; KD of G1d divided by KD of this antibody;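 note: antibodies captured on an anti-Fab-kappa streptavidin chip, soluble FcγR ectodomains flowed over, KD by steady-state fit for FcγRIIb and Langmuir kinetic model for the other receptors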
[16] = biological target: T5, human FcγRIIIa F extracellular domain; test: as above
[17] = biological target: T8, human FcγRIa extracellular domain (human, UniProt P12314 16-292); test: as above
T8 construct: extracellular domain; also called hFcγR Ia; hFcγRIa
T8 sequence (P12314 16-292): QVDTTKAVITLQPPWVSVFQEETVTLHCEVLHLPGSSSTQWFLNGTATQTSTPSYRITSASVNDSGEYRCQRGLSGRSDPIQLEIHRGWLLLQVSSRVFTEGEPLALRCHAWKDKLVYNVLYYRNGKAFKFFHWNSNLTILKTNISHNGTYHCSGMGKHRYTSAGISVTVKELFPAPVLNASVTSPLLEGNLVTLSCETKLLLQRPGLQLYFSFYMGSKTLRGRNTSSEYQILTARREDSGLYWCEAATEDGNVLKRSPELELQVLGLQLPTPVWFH

[18] = biological target: T6, human FcγRIIIa V extracellular domain; test: as above
[19] = biological target: T3, human FcγRIIb extracellular domain; test: as above
[20] = biological target: T7, human FcγRIIa H extracellular domain; test: as above
[21] = biological target: hFcγRIIIaV on hFcγRIIIaV-expressing Jurkat cells (human, UniProt P08637 17-254); test: cell-based or functional assay
Sequence of hFcγRIIIaV on hFcγRIIIaV-expressing Jurkat cells (P08637 17-254, form in doubt): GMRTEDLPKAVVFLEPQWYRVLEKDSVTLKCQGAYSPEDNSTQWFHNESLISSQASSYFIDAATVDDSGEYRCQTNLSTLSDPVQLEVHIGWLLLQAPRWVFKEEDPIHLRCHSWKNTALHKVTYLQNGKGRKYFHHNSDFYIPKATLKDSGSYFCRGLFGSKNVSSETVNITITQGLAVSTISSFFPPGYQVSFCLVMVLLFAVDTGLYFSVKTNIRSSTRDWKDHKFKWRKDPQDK

[22] = biological target: T9, hFcγRIIaH on hFcγRIIaH-expressing Jurkat cells (human, UniProt P12318 34-317); test: cell-based or functional assay
T9 sequence (looked up): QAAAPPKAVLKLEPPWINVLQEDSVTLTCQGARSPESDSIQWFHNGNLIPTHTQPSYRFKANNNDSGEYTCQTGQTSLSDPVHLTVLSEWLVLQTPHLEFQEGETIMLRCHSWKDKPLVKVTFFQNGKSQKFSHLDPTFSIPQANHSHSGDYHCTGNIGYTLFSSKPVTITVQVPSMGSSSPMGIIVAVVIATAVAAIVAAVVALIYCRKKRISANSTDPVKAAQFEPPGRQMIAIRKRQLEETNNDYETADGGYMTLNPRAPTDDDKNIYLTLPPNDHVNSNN

[23] = biological target: T10, human C1q protein (Calbiochem) (human, UniProt P02745 23-245; P02746 28-253; P02747 29-245); test: ELISA: antibody coated on the plate at the varied concentration, hC1q 3 µg/mL added, detected with HRP-conjugated anti-hC1q antibody, O.D (450-690nm)
T10 construct: bought; also called hC1q
T10 sequence (P02745 23-245 limits assumed, chain 1 of 3): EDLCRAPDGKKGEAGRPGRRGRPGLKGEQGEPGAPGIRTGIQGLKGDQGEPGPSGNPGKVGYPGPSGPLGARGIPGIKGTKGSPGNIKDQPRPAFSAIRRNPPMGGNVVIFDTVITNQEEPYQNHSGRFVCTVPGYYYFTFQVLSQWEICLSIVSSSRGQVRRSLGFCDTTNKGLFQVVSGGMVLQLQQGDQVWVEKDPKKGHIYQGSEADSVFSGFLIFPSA
T10 sequence (P02746 28-253 limits assumed, chain 2 of 3): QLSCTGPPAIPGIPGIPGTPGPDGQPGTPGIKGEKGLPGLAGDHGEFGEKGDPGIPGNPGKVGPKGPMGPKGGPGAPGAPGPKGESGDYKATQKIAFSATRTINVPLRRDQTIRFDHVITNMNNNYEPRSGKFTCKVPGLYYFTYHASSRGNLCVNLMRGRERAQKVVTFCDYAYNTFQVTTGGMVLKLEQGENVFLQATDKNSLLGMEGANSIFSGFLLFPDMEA
T10 sequence (P02747 29-245 limits assumed, chain 3 of 3): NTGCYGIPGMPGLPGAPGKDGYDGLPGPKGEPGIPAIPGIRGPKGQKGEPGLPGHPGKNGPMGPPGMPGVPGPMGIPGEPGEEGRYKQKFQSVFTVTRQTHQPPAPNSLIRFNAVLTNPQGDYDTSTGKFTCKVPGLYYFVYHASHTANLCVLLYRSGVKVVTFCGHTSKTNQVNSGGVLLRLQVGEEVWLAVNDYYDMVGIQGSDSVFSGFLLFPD

[24] = biological target: T4, human FcγRIIa R extracellular domain; test: SPR Biacore 8K+, antibody captured, FcγR as analyte, 1:1 Langmuir model;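 note: antibodies captured on a streptavidin chip through a biotinylated anti-human Fab kappa reagent, with FcγR extracellular domains injected in pH 7.4 phosphate buffer at 25 °C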
[25] = biological target: T5, human FcγRIIIa F extracellular domain; test: as above
[26] = biological target: T8, human FcγRIa extracellular domain; test: as above
[27] = biological target: T6, human FcγRIIIa V extracellular domain; test: as above
[28] = biological target: T7, human FcγRIIa H extracellular domain; test: as above

T1 sequence (chain, as listed by the source limits assumed): as the sequence (chain, as listed by the source limits assumed) above

Kd [1]: 6900 nM
Kd [2]: 280 nM
Kd [3]: 48 nM
B1: 04H1077-G1m/04L1066-lam1 (antibody, human IgG1, lambda, V domains shown)
VH: EVQLVESGGDLVKPGGGLRLSCAASGFTFSSRTMNWVRQAPGKGLEWVSSISTRSGYIYYAESVKGRFTISRDNAKNSLYLQMNSLRAEDTAVYYCARYGKREDMLWVFDYWGQGTLVTVSS
VL: QSALTQPPSASGSPGQTVTISCDGPSTDVGDYNWVHWYQQHPGKAPKLMIYFTSKKPSGVPDRFSGSKSGNTASLTVSGLQAEDEADYFCSTYAAPLGPMFGGGTKLTVLG

Kd (human CTLA4 [4]): 14 nM
Binding to Human CTLA4 (binding amount per unit amount of antibody) (human CTLA4 [5]): 0.152
Kd (human CTLA4 [6]): 46 nM
Binding to Human CTLA4 (binding amount per unit amount of antibody) (human CTLA4 [7]): 0.008
Binding to Human CTLA4 (binding amount per unit amount of antibody) (human CTLA4 [8]): 0.159
Binding to Human CTLA4 (binding amount per unit amount of antibody) (human CTLA4 [9]): 0.09
B2: 04H1382-G1m/04L1086-lam1 (antibody, human IgG1, lambda, V domains shown)
VH: EVQLVESGGGLVKPGGSLRLSCAASGFTFSSKTMNWVRQAPGKGLEWVSSISTQSHYIYYARSVKGRFTISRDNAKNSLYLQMNSLRAEDTAVYYCARYGKREDMLWVFDYWGQGTLVTVSS
VL: QSALTQPPSASGSPGQTVTISCDGPSTGVGDYNYVHWYQQHPGKAPKLMIYFTSKKPSGVPDRFSGSKSGNTASLTVSGLQAEDEADYFCQTYAAPLGPMFGGGTKLTVLG

Kd (human CTLA4 [4]): 76 nM
Binding to Human CTLA4 (binding amount per unit amount of antibody) (human CTLA4 [5]): 0.111
Kd (human CTLA4 [6]): 400 nM
Binding to Human CTLA4 (binding amount per unit amount of antibody) (human CTLA4 [7]): 0.01
Binding to Human CTLA4 (binding amount per unit amount of antibody) (human CTLA4 [8]): 0.166
Binding to Human CTLA4 (binding amount per unit amount of antibody) (human CTLA4 [9]): 0.037
B3: 04H1207-G1m/04L1086-lam1 (antibody, human IgG1, lambda, V domains shown)
VH: EVQLVESGGGLVKPGGSLRLSCAASGFTFSSKTMNWVRQAPGKGLEWVSSISTRSGYIYYAESVKGRFTISRDNAKNSLYLQMNSLRAEDTAVYYCARYGKREDMLWVFDYWGQGTLVTVSS
VL: QSALTQPPSASGSPGQTVTISCDGPSTGVGDYNYVHWYQQHPGKAPKLMIYFTSKKPSGVPDRFSGSKSGNTASLTVSGLQAEDEADYFCQTYAAPLGPMFGGGTKLTVLG
notes: Human IgG1 constant region G1m (C-terminal Gly and Lys removed), human lambda chain lam1

Kd (human CTLA4 [4]): 91 nM
Binding to Human CTLA4 (binding amount per unit amount of antibody) (human CTLA4 [5]): 0.084
Kd (human CTLA4 [6]): 510 nM
Binding to Human CTLA4 (binding amount per unit amount of antibody) (human CTLA4 [7]): 0.003
Binding to Human CTLA4 (binding amount per unit amount of antibody) (human CTLA4 [8]): 0.139
Binding to Human CTLA4 (binding amount per unit amount of antibody) (human CTLA4 [9]): 0.022
B4: 04H1208-G1m/04L1086-lam1 (antibody, human IgG1, lambda, V domains shown)
VH: EVQLVESGGGLVKPGGSLRLSCAASGFTFSSKTMNWVRQAPGKGLEWVSSISTRSGYIYYARSVKGRFTISRDNAKNSLYLQMNSLRAEDTAVYYCARYGKREDMLWVFDYWGQGTLVTVSS
VL: QSALTQPPSASGSPGQTVTISCDGPSTGVGDYNYVHWYQQHPGKAPKLMIYFTSKKPSGVPDRFSGSKSGNTASLTVSGLQAEDEADYFCQTYAAPLGPMFGGGTKLTVLG

Kd [10]: 2670 nM
A/I ratio (KD for FcγRIIb divided by KD for each FcγR) [11]: 16.5
A/I ratio (KD for FcγRIIb divided by KD for each FcγR) [12]: 89.3
A/I ratio (KD for FcγRIIb divided by KD for each FcγR) [13]: 176
A/I ratio (KD for FcγRIIb divided by KD for each FcγR) [14]: 16.5
Relative value to KD between G1d and hFcgRs [15]: 10.3
Relative value to KD between G1d and hFcgRs [16]: 99.1
Relative value to KD between G1d and hFcgRs [17]: 21.3
Relative value to KD between G1d and hFcgRs [18]: 23.6
Relative value to KD between G1d and hFcgRs [19]: 3.8
Relative value to KD between G1d and hFcgRs [20]: 6.9
EC50 value (hFcγRIIIaV ADCC Reporter Bioassay, Hepa1-6/hEREG target cells) [21]: 0.00208 µg/mL
EC50 value (hFcγRIIaH ADCP Reporter Bioassay, Hepa1-6/hEREG target cells) [22]: 0.0324 µg/mL
binding result [23]: no binding (tested: 30 µg/mL)
Kd [24]: 161 nM
Kd [25]: 29.8 nM
Kd [26]: 0.00423 nM
Kd [27]: 15.2 nM
Kd [28]: 162 nM
B5: H240-GASDALIE/L73-k0 (antibody, human IgG1, kappa)
heavy: QDQLVQSGAEVKKPGASVKVSCKASGFNIKDTYIQWVRQAPGQGLEWMGRIDPLRKQTKYREKFEGRVTITADTSTNTAYMELSSLRSEDTAVYYCVRSGREFDYWGQGTLVTVSSASTKGPSVFPLAPSSKSTSGGTAALGCLVKDYFPEPVTVSWNSGALTSGVHTFPAVLQSSGLYSLSSVVTVPSSSLGTQTYICNVNHKPSNTKVDKKVEPKSCDKTHTCPPCPAPELLAGPDVFLFPPKPKDTLMISRTPEVTCVVVDVSHEDPEVKFNWYVDGVEVHNAKTKPREEQYNSTYRVVSVLTVLHQDWLNGKEYKCKVSNKALPLPEEKTISKAKGQPREPQVYTLPPSRDELTKNQVSLTCLVKGFYPSDIAVEWESNGQPENNYKTTPPVLDSDGSFFLYSKLTVDKSRWQQGNVFSCSVMHEALHNHYTQKSLSLSP
light: DIQMTQSPSSLSASVGDRVTITCRASQDIHKYIAWYQQKPGQAPRLLIQYTSTLQPGVPSRFSGSGSGTDYTFTISSLQPEDIATYYCLQYEQLRTFGGGTKVEIKRTVAAPSVFIFPPSDEQLKSGTASVVCLLNNFYPREAKVQWKVDNALQSGNSQESVTEQDSKDSTYSLSSTLTLSKADYEKHKVYACEVTHQGLSSPVTKSFNRGEC
